Source: paper doi:10.1101/2025.03.25.645380, “Extracellular Nanobody Screening using Conformationally Stable GPCR” (bioRxiv, 2025)
Blank lines part the entries; values can stand above or below the binder they belong to.

How the values were obtained:
M1R-G11CT [1] = target: T1, M1R-G11CT (Homo sapiens (from template PDB 6OIJ), UniProt P11229, chimera); test: flow cytometry on cells; nanobody displayed on yeast, single colonies; stained with 10 nM fluorescence-labeled purified FLAG-tagged receptor (atropine-bound M1R-Clip1 or iperoxo-bound M1R-G11CT), Alexa Fluor-647 anti-FLAG and Alexa Fluor-488 anti-HA; selection buffer 20 mM HEPES pH 7.5, 100 mM NaCl, 0.05% MNG, 0.005% CHS, 2 mM CaCl2, 0.1% BSA, 0.2% maltose; conditions: one partner purified
T1 construct: M1 muscarinic acetylcholine receptor (M1R), N-terminal part through TM5 up to the fusion site T215 (5.65); de novo designed fusion protein (RFdiffusion, ProteinMPNN, AlphaFold2) put between T215 and A364 in place of ICL3; M1 muscarinic acetylcholine receptor (M1R), from the fusion site A364 (6.34) in TM6 to the C-terminus of the receptor; 2×GGSGG linker between the C-terminus of the receptor and …

M1R-G11CT [2] = target: T1, M1R-G11CT; test: cryo-EM structure; purified M1R-nanobody complexes on Au Quantifoil grids; Nb1B4 with M1R-G11CT and iperoxo, NbA12 with M1R-Clip1 and atropine; conditions: both partners purified
Target sequence in this assay (P11229 whole entry, stated change not applied, the tested form may be a part): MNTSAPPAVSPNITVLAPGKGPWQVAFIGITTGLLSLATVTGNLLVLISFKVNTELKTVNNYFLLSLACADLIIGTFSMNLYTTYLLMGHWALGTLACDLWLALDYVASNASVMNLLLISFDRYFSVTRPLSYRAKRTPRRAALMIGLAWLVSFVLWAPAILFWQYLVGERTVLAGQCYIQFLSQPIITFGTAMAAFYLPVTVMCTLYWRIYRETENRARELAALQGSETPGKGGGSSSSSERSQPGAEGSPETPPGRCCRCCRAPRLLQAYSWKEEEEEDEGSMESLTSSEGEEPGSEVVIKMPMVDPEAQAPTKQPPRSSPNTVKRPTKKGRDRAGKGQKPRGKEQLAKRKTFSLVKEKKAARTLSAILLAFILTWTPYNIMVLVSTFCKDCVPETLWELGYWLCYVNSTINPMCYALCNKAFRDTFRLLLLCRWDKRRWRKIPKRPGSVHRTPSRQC

binding result (M1R-G11CT [1]): binds
B1: Nb1B4 displayed on yeast (VHH)
VHH: QVQLQESGGGLVQAGGSLRLSCAASGSIFYGYYMGWYRQAPGKEREFVATINYGASTNYADSVKGRFTISRDNAKNTVYLQMNSLKPEDTAVYYCAVRRVYVYVQRYYHYYWGQGTQVTVSS
notes: Yeast display fusion; also called active-state selective nanobody

binding result (M1R-G11CT [2]): binds
B2: Nb1B4, purified (VHH)
VHH: B1 VHH
notes: also called active-state selective nanobody; source: E. coli BL21(DE3) periplasm or HEK293F supernatant, purified (Ni-NTA, SEC)
